Consider twelve molecules from patent US12104181B2, “Compositions and methods for treating viral infections targeting TRIM7” (THE BOARD OF REGENTS OF THE UNIVERSITY OF TEXAS SYSTEM, priority 2021, dated 2024).

This test has as its system coxsackievirus B3 (CVB3-GFP). The class given is cell-based. The conditions noted are these: HeLa cells, replicate R1; for Percent Infected R1: GFP-positive cells within RFP-positive gate.

B1: RNF14: human RING type E3 ligase expressed from lentiviral vector (protein, UniProt Q9UBS8 1-474, looked up)
E3 ubiquitin-protein ligase …: MSSEDREAQEDELLALASIYDGDEFRKAESVQGGETRIYLDLPQNFKIFVSGNSNECLQNSGFEYTICFLPPLVLNFELPPDYPSSSPPSFTLSGKWLSPTQLSALCKHLDNLWEEHRGSVVLFAWMQFLKEETLAYLNIVSPFELKIGSQKKVQRRTAQASPNTELDFGGAAGSDVDQEEIVDERAVQDVESLSNLIQEILDFDQAQQIKCFNSKLFLCSICFCEKLGSECMYFLECRHVYCKACLKDYFEIQIRDGQVQCLNCPEPKCPSVATPGQVKELVEAELFARYDRLLLQSSLDLMADVVYCPRPCCQLPVMQEPGCTMGICSSCNFAFCTLCRLTYHGVSPCKVTAEKLMDLRNEYLQADEANKRLLDQRYGKRVIQKALEEMESKEWLEKNSKSCPCCGTPIEKLDGCNKMTCTGCMQYFCWICMGSLSRANPYKHFNDPGSPCFNRLFYAVDVDDDIWEDEVED
modifications: lentiviral expression
notes: human RING type E3 ligase expressed from lentiviral vector
As for B1, the “Percent Infected R1” value is reported as 95.5% and the “Z score R1” value is reported as 0.09.

B2: RI NG1: human RING type E3 ligase expressed from lentiviral vector (protein, UniProt Q06587 1-406, looked up)
E3 ubiquitin-protein ligase …: MTTPANAQNASKTWELSLYELHRTPQEAIMDGTEIAVSPRSLHSELMCPICLDMLKNTMTTKECLHRFCSDCIVTALRSGNKECPTCRKKLVSKRSLRPDPNFDALISKIYPSREEYEAHQDRVLIRLSRLHNQQALSSSIEEGLRMQAMHRAQRVRRPIPGSDQTTTMSGGEGEPGEGEGDGEDVSSDSAPDSAPGPAPKRPRGGGAGGSSVGTGGGGTGGVGGGAGSEDSGDRGGTLGGGTLGPPSPPGAPSPPEPGGEIELVFRPHPLLVEKGEYCQTRYVKTTGNATVDHLSKYLALRIALERRQQQEAGEPGGPGGGASDTGGPDGCGGEGGGAGGGDGPEEPALPSLEGVSEKQYTIYIAPGGGAFTTLNGSLTLELVNEKFWKVSRPLELCYAPTKDPK
Regarding B2, the “Percent Infected R1” value is listed as 92.9% and the “Z score R1” value is 0.05.

B3: RNF166: human RING type E3 ligase expressed from lentiviral vector (protein, UniProt Q96A37 1-237, looked up)
E3 ubiquitin-protein ligase …: MAMFRSLVASAQQRQPPAGPAGGDSGLEAQYTCPICLEVYHRPVAIGSCGHTFCGECLQPCLQVPSPLCPLCRLPFDPKKVDKATHVEKQLSSYKAPCRGCNKKVTLAKMRVHISSCLKVQEQMANCPKFVPVVPTSQPIPSNIPNRSTFACPYCGARNLDQQELVKHCVESHRSDPNRVVCPICSAMPWGDPSYKSANFLQHLLHRHKFSYDTFVDYSIDEEAAFQAALALSLSEN
modifications: lentiviral expression
notes: as for B1
B3: the “Percent Infected R1” value is listed as 94.5% and the “Z score R1” value was found to be 0.08.

B4: RNF8: human RING type E3 ligase expressed from lentiviral vector (protein, UniProt O76064 1-485, looked up)
E3 ubiquitin-protein ligase …: MGEPGFFVTGDRAGGRSWCLRRVGMSAGWLLLEDGCEVTVGRGFGVTYQLVSKICPLMISRNHCVLKQNPEGQWTIMDNKSLNGVWLNRARLEPLRVYSIHQGDYIQLGVPLENKENAEYEYEVTEEDWETIYPCLSPKNDQMIEKNKELRTKRKFSLDELAGPGAEGPSNLKSKINKVSCESGQPVKSQGKGEVASTPSDNLDPKLTALEPSKTTGAPIYPGFPKVTEVHHEQKASNSSASQRSLQMFKVTMSRILRLKIQMQEKHEAVMNVKKQTQKGNSKKVVQMEQELQDLQSQLCAEQAQQQARVEQLEKTFQEEEQHLQGLEIAQGEKDLKQQLAQALQEHWALMEELNRSKKDFEAIIQAKNKELEQTKEEKEKMQAQKEEVLSHMNDVLENELQCIICSEYFIEAVTLNCAHSFCSYCINEWMKRKIECPICRKDIKSKTYSLVLDNCINKMVNNLSSEVKERRIVLIRERKAKRLF
modifications: lentiviral expression
notes: as for B1
Take B4: the “Percent Infected R1” value was 82.8% and the “Z score R1” value is given as −0.07.

B5: RNF152: human RING type E3 ligase expressed from lentiviral vector (protein, UniProt Q8N8N0 1-203, looked up)
E3 ubiquitin-protein ligase …: METLSQDSLLECQICFNYYSPRRRPKLLDCKHTCCSVCLQQMRTSQKDVRCPWCRGVTKLPPGFSVSQLPDDPEVLAVIAIPHTSEHTPVFIKLPSNGCYMLPLPISKERALLPGDMGCRLLPGSQQKSVTVVTIPAEQQPLQGGAPQEAVEEEQDRRGVVKSSTWSGVCTVILVACVLVFLLGIVLHNMSCISKRFTVISCG
modifications: lentiviral expression
notes: as for B1
As to B5, the “Percent Infected R1” value is 97.4% and the “Z score R1” value is given as 0.11.

B6: MARCH1: human RING type E3 ligase expressed from lentiviral vector (protein, UniProt Q8TCQ1 1-289, looked up)
E3 ubiquitin-protein ligase …: MLGWCEAIARNPHRIPNNTRTPEISGDLADASQTSTLNEKSPGRSASRSSNISKASSPTTGTAPRSQSRLSVCPSTQDICRICHCEGDEESPLITPCRCTGTLRFVHQSCLHQWIKSSDTRCCELCKYDFIMETKLKPLRKWEKLQMTTSERRKIFCSVTFHVIAITCVVWSLYVLIDRTAEEIKQGNDNGVLEWPFWTKLVVVAIGFTGGLVFMYVQCKVYVQLWRRLKAYNRVIFVQNCPDTAKKLEKNFSCNVNTDIKDAVVVPVPQTGANSLPSAEGGPPEVVSV
In the case of B6, the “Percent Infected R1” value came to 97.7% and the “Z score R1” value came to 0.12.

B7: RNF182: human RING type E3 ligase expressed from lentiviral vector (protein, UniProt Q8N6D2 1-247, looked up)
E3 ubiquitin-protein ligase …: MASQPPEDTAESQASDELECKICYNRYNLKQRKPKVLECCHRVCAKCLYKIIDFGDSPQGVIVCPFCRFETCLPDDEVSSLPDDNNILVNLTCGGKGKKCLPENPTELLLTPKRLASLVSPSHTSSNCLVITIMEVQRESSPSLSSTPVVEFYRPASFDSVTTVSHNWTVWNCTSLLFQTSIRVLVWLLGLLYFSSLPLGIYLLVSKKVTLGVVFVSLVPSSLVILMVYGFCQCVCHEFLDCMAPPS
On to B7, for which the “Percent Infected R1” value is given as 97.9% and the “Z score R1” value turned out to be 0.12.

B8: MARCH2: human RING type E3 ligase expressed from lentiviral vector (protein, UniProt Q9P0N8 1-246, looked up)
E3 ubiquitin-protein ligase …: MTTGDCCHLPGSLCDCSGSPAFSKVVEATGLGPPQYVAQVTSRDGRLLSTVIRALDTPSDGPFCRICHEGANGECLLSPCGCTGTLGAVHKSCLEKWLSSSNTSYCELCHTEFAVEKRPRPLTEWLKDPGPRTEKRTLCCDMVCFLFITPLAAISGWLCLRGAQDHLRLHSQLEAVGLIALTIALFTIYVLWTLVSFRYHCQLYSEWRKTNQKVRLKIREADSPEGPQHSPLAAGLLKKVAEETPV
As for B8, the “Percent Infected R1” value was found to be 92.4% and the “Z score R1” value is on record as 0.05.

B9: RNF151: human RING type E3 ligase expressed from lentiviral vector (protein, UniProt Q2KHN1 1-245, looked up)
RING finger protein 151: MGGGYDLNLFASPPDSNFVCSVCHGVLKRPARLPCSHIFCKKCILRWLARQKTCPCCRKEVKRKKVVHMNKLRKTIGRLEVKCKNADAGCIVTCPLAHRKGHQDSCPFELTACPNEGCTSQVPRGTLAEHRQHCQQGSQQRCPLGCGATLDPAERARHNCYRELHNAWSVRQERRRPLLLSLLRRVRWLDQATSVVRRELAELSNFLEEDTALLEGAPQEEAEAAPEGNVGAEVVGEPRANIPCK
Turning to B9, the “Percent Infected R1” value was 92.8% and the “Z score R1” value was found to be 0.05.

B10: RNF121: human RING type E3 ligase expressed from lentiviral vector (protein, UniProt Q9H920 2-327, looked up)
E3 ubiquitin ligase RNF121: AAVVEVEVGGGAAGERELDEVDMSDLSPEEQWRVEHARMHAKHRGHEAMHAEMVLILIATLVVAQLLLVQWKQRHPRSYNMVTLFQMWVVPLYFTVKLHWWRFLVIWILFSAVTAFVTFRATRKPLVQTTPRLVYKWFLLIYKISYATGIVGYMAVMFTLFGLNLLFKIKPEDAMDFGISLLFYGLYYGVLERDFAEMCADYMASTIGFYSESGMPTKHLSDSVCAVCGQQIFVDVSEEGIIENTYRLSCNHVFHEFCIRGWCIVGKKQTCPYCKEKVDLKRMFSNPWERPHVMYGQLLDWLRYLVAWQPVIIGVVQGINYILGLE
As to B10, the “Percent Infected R1” value is 84.1% and the “Z score R1” value was −0.06.

B11: RNF180: human RING type E3 ligase expressed from lentiviral vector (protein, UniProt Q86T96 1-592, looked up)
E3 ubiquitin-protein ligase …: MKRSKELITKNHSQEETSILRCWKCRKCIASSGCFMEYLENQVIKDKDDSVDAQNICHVWHMNVEALPEWISCLIQKAQWTVGKLNCPFCGARLGGFNFVSTPKCSCGQLAAVHLSKSRTDYQPTQAGRLMRPSVKYLSHPRVQSGCDKEALLTGGGSENRNHRLLNMARNNNDPGRLTEALCLEVRPTYFEMKNEKLLSKASEPKYQLFVPQLVTGRCATRAFHRKSHSLDLNISEKLTLLPTLYEIHSKTTAYSRLNETQPIDLSGLPLQSSKNSYSFQNPSSFDPSMLLQRFSVAPHETQTQRGGEFQCGLEAASVYSDHTNTNNLTFLMDLPSAGRSMPEASDQEEHLSPLDFLHSANFSLGSINQRLNKRERSKLKNLRRKQRRRERWLQKQGKYSGVGLLDHMTLNNEMSTDEDNEYAEEKDSYICAVCLDVYFNPYMCYPCHHIFCEPCLRTLAKDNPSSTPCPLCRTIISRVFFQTELNNATKTFFTKEYLKIKQSFQKSNSAKWPLPSCRKAFHLFGGFRRHAAPVTRRQFPHGAHRMDYLHFEDDSRGWWFDMDMVIIYIYSVNWVIGFIVFCFLCYFFFPF
modifications: lentiviral expression
notes: as for B1
B11: the “Percent Infected R1” value is 93.2% and the “Z score R1” value is 0.06.

B12: RNF144A: human RING type E3 ligase expressed from lentiviral vector (protein, UniProt P50876 1-292, looked up)
E3 ubiquitin-protein ligase …: MTTTRYRPTWDLALDPLVSCKLCLGEYPVEQMTTIAQCQCIFCTLCLKQYVELLIKEGLETAISCPDAACPKQGHLQENEIECMVAAEIMQRYKKLQFEREVLFDPCRTWCPASTCQAVCQLQDVGLQTPQPVQCKACRMEFCSTCKASWHPGQGCPETMPITFLPGETSAAFKMEEDDAPIKRCPKCKVYIERDEGCAQMMCKNCKHAFCWYCLESLDDDFLLIHYDKGPCRNKLGHSRASVIWHRTQVVGIFAGFGLLLLVASPFLLLATPFVLCCKCKCSKGDDDPLPT
Regarding B12, the “Percent Infected R1” value is given as 97.7% and the “Z score R1” value is 0.12.
